Columns and labels:
[1] = molecular target: HLA-A*01:01; assay: IEDB peptide-MHC binding, purified MHC/direct/fluorescence; filed as Kd, often an IC50 or EC50 that approximates it; ≥ and ≤ were set here for values at or beyond the usual limits of such assays
[2] = molecular target: HLA-A*02:01; assay: as above
[3] = molecular target: HLA-A*03:01; assay: as above
[4] = molecular target: HLA-A*11:01; assay: as above
[5] = molecular target: HLA-A*24:02; assay: as above
[6] = molecular target: HLA-A*26:01; assay: as above; details: source organism: Influenza A virus(A/swine/Shandong/fNY/2003(H9N2))
[7] = molecular target: HLA-A*31:01; assay: as above
[8] = molecular target: HLA-B*07:02; assay: as above
[9] = molecular target: HLA-B*08:01; assay: as above
[10] = molecular target: HLA-B*08:02; assay: as above; details: source organism: Influenza A virus(A/swine/Shandong/fNY/2003(H9N2))
[11] = molecular target: HLA-B*15:01; assay: as above
[12] = molecular target: HLA-B*27:05; assay: as above
[13] = molecular target: HLA-B*40:01; assay: as above
[14] = molecular target: HLA-B*44:02; assay: as above
[15] = molecular target: HLA-B*46:01; assay: as above
[16] = molecular target: HLA-B*58:01; assay: as above
[17] = molecular target: HLA-A*69:01; assay: as above
[18] = molecular target: HLA-B*18:01; assay: as above; details: source organism: Escherichia coli O157:H7
[19] = molecular target: HLA-B*15:09; assay: as above; details: source organism: Giardia lamblia ATCC 50803
[20] = molecular target: HLA-B*08:01; assay: IEDB peptide-MHC binding, purified MHC/competitive/fluorescence; filed as Kd, often an IC50 or EC50 that approximates it; ≥ and ≤ were set here for values at or beyond the usual limits of such assays; details: source organism: Yersinia pestis Antiqua
[21] = molecular target: HLA-B*27:05; assay: as above
[22] = molecular target: HLA-A*02:03; assay: IEDB peptide-MHC binding, purified MHC/direct/fluorescence; filed as Kd, often an IC50 or EC50 that approximates it; ≥ and ≤ were set here for values at or beyond the usual limits of such assays
[23] = molecular target: HLA-A*02:11; assay: as above
[24] = molecular target: HLA-A*02:12; assay: as above
[25] = molecular target: HLA-A*02:16; assay: as above
[26] = molecular target: HLA-A*02:19; assay: as above
[27] = molecular target: HLA-A*23:01; assay: as above
[28] = molecular target: HLA-A*24:03; assay: as above
[29] = molecular target: HLA-A*29:02; assay: as above
[30] = molecular target: HLA-A*68:02; assay: as above
[31] = molecular target: HLA-A*02:01; assay: IEDB peptide-MHC binding, purified MHC/competitive/fluorescence; filed as Kd, often an IC50 or EC50 that approximates it; ≥ and ≤ were set here for values at or beyond the usual limits of such assays
[32] = molecular target: HLA-A*26:01; assay: as above
[33] = molecular target: HLA-A*69:01; assay: as above
[34] = molecular target: HLA-B*15:01; assay: as above
[35] = molecular target: HLA-B*18:01; assay: as above
[36] = molecular target: HLA-B*39:01; assay: as above
[37] = molecular target: HLA-B*46:01; assay: as above
[38] = molecular target: HLA-B*51:01; assay: as above
[39] = molecular target: HLA-B*57:01; assay: as above
[40] = molecular target: HLA-B*15:17; assay: as above; details: source organism: Orthohantavirus negraense
[41] = source organism: Influenza A virus (A/Viet Nam/HN/2004(H5N1))
[42] = source organism: Escherichia coli O157:H7
[43] = source organism: Giardia lamblia ATCC 50803
[44] = source organism: Orthohantavirus tulaense
[45] = source organism: Orthohantavirus negraense
[46] = source organism: Francisella tularensis subsp. holarctica LVS
[47] = source organism: dengue virus type 2

Q: Which results are given for ERNEQGQTL?
A: Kd [1, 41]: ≥ 20 µM; Kd [2, 41]: ≥ 20 µM; Kd [3, 41]: ≥ 20 µM; Kd [4, 41]: ≥ 20 µM; Kd [5, 41]: ≥ 20 µM; Kd [6]: ≥ 20 µM; Kd [7, 41]: ≥ 20 µM; Kd [8, 41]: ≥ 20 µM; Kd [9, 41]: ≥ 20 µM; Kd [10]: ≥ 20 µM; Kd [11, 41]: ≥ 20 µM; Kd [12, 41]: ≥ 20 µM; Kd [13, 41]: ≥ 20 µM; Kd [14, 41]: ≥ 20 µM; Kd [15, 41]: ≥ 20 µM; Kd [16, 41]: ≥ 20 µM

Q: What does the source list for LDKGKLWHL?
A: Kd [1, 42]: ≥ 20 µM; Kd [2, 42]: ≥ 20 µM; Kd [3, 42]: ≥ 20 µM; Kd [4, 42]: ≥ 20 µM; Kd [5, 42]: ≥ 20 µM; Kd [7, 42]: ≥ 20 µM; Kd [17, 42]: ≥ 20 µM; Kd [8, 42]: ≥ 20 µM; Kd [11, 42]: ≥ 20 µM; Kd [18]: ≥ 20 µM; Kd [12, 42]: ≥ 20 µM; Kd [13, 42]: ≥ 20 µM; Kd [14, 42]: ≥ 20 µM; Kd [15, 42]: ≥ 20 µM; Kd [16, 42]: ≥ 20 µM

Q: Which Kd [1, 43] does the source give for LERIKANIF here?
A: ≥ 20 µM

Q: What about the Kd [2, 43] of the same sequence?
A: ≥ 20 µM

Q: And the Kd [3, 43]?
A: ≥ 20 µM

Q: And the Kd [4, 43]?
A: ≥ 20 µM

Q: What about the Kd [5, 43] of the same sequence?
A: ≥ 20 µM

Q: What about the Kd [7, 43] of the same sequence?
A: ≥ 20 µM

Q: And the Kd [17, 43]?
A: ≥ 20 µM

Q: What about the Kd [8, 43] of the same sequence?
A: ≥ 20 µM

Q: And the Kd [9, 43]?
A: 16.6 µM

Q: And the Kd [11, 43]?
A: 0.918 µM

Q: What about the Kd [19] of the same sequence?
A: ≥ 20 µM

Q: What about the Kd [12, 43] of the same sequence?
A: ≥ 20 µM

Q: And the Kd [13, 43]?
A: 2.43 µM

Q: And the Kd [14, 43]?
A: ≥ 20 µM

Q: And the Kd [15, 43]?
A: ≥ 20 µM

Q: What about the Kd [16, 43] of the same sequence?
A: ≥ 20 µM

Q: For LRQKRKAGV, which Kd [20] is on record?
A: ≥ 20 µM

Q: And the Kd ([21]; source organism: Yersinia pestis Antiqua)?
A: 0.0805 µM

Q: RQWRWPLGE was tested. Which Kd ([21]; source organism: Mycobacterium tuberculosis C) did it give?
A: 0.928 µM

Q: For RRAYSGKQY, which Kd [22, 44] is on record?
A: ≥ 20 µM

Q: What about the Kd [23, 44] of the same sequence?
A: ≥ 20 µM

Q: And the Kd [24, 44]?
A: ≥ 20 µM

Q: What about the Kd [25, 44] of the same sequence?
A: ≥ 20 µM

Q: What about the Kd [26, 44] of the same sequence?
A: ≥ 20 µM

Q: And the Kd [3, 44]?
A: ≥ 20 µM

Q: And the Kd [27, 44]?
A: ≥ 20 µM

Q: What about the Kd [28, 44] of the same sequence?
A: ≥ 20 µM

Q: And the Kd [29, 44]?
A: ≥ 20 µM

Q: And the Kd [30, 44]?
A: ≥ 20 µM

Q: What about the Kd ([31]; source organism: Kurkino virus) of the same sequence?
A: ≥ 20 µM

Q: What about the Kd ([32]; source organism: Kurkino virus) of the same sequence?
A: ≥ 20 µM

Q: And the Kd ([33]; source organism: Kurkino virus)?
A: ≥ 20 µM

Q: What about the Kd ([34]; source organism: Kurkino virus) of the same sequence?
A: ≥ 20 µM

Q: What about the Kd ([35]; source organism: Kurkino virus) of the same sequence?
A: ≥ 20 µM

Q: What about the Kd ([21]; source organism: Kurkino virus) of the same sequence?
A: 0.23 µM

Q: What about the Kd ([36]; source organism: Kurkino virus) of the same sequence?
A: ≥ 20 µM

Q: And the Kd ([37]; source organism: Kurkino virus)?
A: ≥ 20 µM

Q: And the Kd ([38]; source organism: Kurkino virus)?
A: ≥ 20 µM

Q: And the Kd ([39]; source organism: Kurkino virus)?
A: ≥ 20 µM

Q: With RRFTQAIYD as the sequence, how does the Kd [22, 45] read?
A: ≥ 20 µM

Q: What about the Kd [23, 45] of the same sequence?
A: ≥ 20 µM

Q: What about the Kd [24, 45] of the same sequence?
A: ≥ 20 µM

Q: And the Kd [25, 45]?
A: ≥ 20 µM

Q: What about the Kd [26, 45] of the same sequence?
A: ≥ 20 µM

Q: And the Kd [3, 45]?
A: ≥ 20 µM

Q: And the Kd [27, 45]?
A: ≥ 20 µM

Q: And the Kd [28, 45]?
A: ≥ 20 µM

Q: What about the Kd [29, 45] of the same sequence?
A: ≥ 20 µM

Q: And the Kd [30, 45]?
A: ≥ 20 µM

Q: And the Kd [31, 45]?
A: ≥ 20 µM

Q: And the Kd [32, 45]?
A: ≥ 20 µM

Q: And the Kd [33, 45]?
A: ≥ 20 µM

Q: And the Kd [34, 45]?
A: ≥ 20 µM

Q: And the Kd [40]?
A: ≥ 20 µM

Q: What about the Kd [35, 45] of the same sequence?
A: ≥ 20 µM

Q: What about the Kd [21, 45] of the same sequence?
A: 0.317 µM

Q: What about the Kd [36, 45] of the same sequence?
A: ≥ 20 µM

Q: And the Kd [37, 45]?
A: ≥ 20 µM

Q: And the Kd [38, 45]?
A: ≥ 20 µM

Q: And the Kd [39, 45]?
A: ≥ 20 µM

Q: Which Kd [27, 46] does the source give for VYYIVVRDF here?
A: 0.017 µM

Q: What about the Kd [5, 46] of the same sequence?
A: 0.0061 µM

Q: What about the Kd [28, 46] of the same sequence?
A: 0.0275 µM

Q: For WYGMEIRPL, which Kd [27, 47] is on record?
A: 1.8 µM

Q: And the Kd [5, 47]?
A: 0.455 µM
